Patent US20230203162A1 (NUMAB THERAPEUTICS, published 2023)

B1: PRO2660 (MATCH4) (other)
chain 1: DIQMTQSPSSLSASVGDRVTITCQASESIYSSLAWYQQKPGKAPKLLIYLASTLASGVPSRFSGSGSGTDFTLTISSLQPEDFATYYCQSTDYTTSTHRNSFGTGTKVTVLGGGGGSGGGGSGGGGSGGGGSEVQLVESGGGLVQPGGSLRLSCAASGFSFSTTYYMCWVRQAPGKGLEWIGCTNTASSVRTYYATWAKGRFTISRDNSKNTVYLQMNSLRAEDTAVYYCARDMGFADYALNLWGQGTLVTVSSGGGGSGGGGSEVQLVESGGGLVQPGGSLRLSCAASGFSLSSYDMSWVRQAPGKGLAWIGASYASGPTYYASWAKGRFTISRDNSKNTVYLQMNSLRAEDTATYFCARGGWTGTSHSNIWGQGTLVTVSSGGGSGGGSGGGSGEVQLVESGGGLVQPGGSLRLSCAASGFSLSSYAMNWVRQAPGKCLEWIGHINAGDIAYYATWAKGRFTISRDNSKNTVYLQMNSLRAEDTAVYFCARGAGGFSTGPFKLWGQGTLVTVSS
chain 2: DIQMTQSPSSLSASVGDRVTITCQASESIYSSLAWYQQKPGKAPKLLIYLASTLASGVPSRFSGSGSGTDFTLTISSLQPEDFATYYCQSTDYTTSTHRNSFGTGTKVTVLGGGGGSGGGGSGGGGSGGGGSEVQLVESGGGLVQPGGSLRLSCAASGFSFSTTYYMCWVRQAPGKGLEWIGCTNTASSVRTYYATWAKGRFTISRDNSKNTVYLQMNSLRAEDTAVYYCARDMGFADYALNLWGQGTLVTVSSGGGGSGGGGSAFELTQSPSSLSASVGDRVTITCQASESINSRLAWYQQKPGQPPKLLIYDASDLTSGVPSRFSGSGSGTDFTLTISSLQPEDFATYYCQGYGGSSTTTFGCGTKLTVLGGGSGGSDIQMTQSPSSLSASVGDRVTITCQSSQSVFSNNYLAWFQQKPGQSPKRLIYSASTLASGVPSRFSGSGSGTDFTLTISSLQPEDFATYYCLGSYACSSADCYVFGTGTKVTVLG
notes: Heterodimer
B2: PRO2562 (MATCH4) (other)
chain 1: ALQMTQSPSSLSARVGDRVTIKCQASQSISNYLAWYQQKPGKPPKFLIYDASDLASGVPSRFSGSGSGRDFTLTISSLQPEDFATYYCQQVYDSNNVENVFGCGTKVTVLGGGGGSGGGGSGGGGSGGGGSQSQLVESGGGLVQPGGSLRLSCAVSGFSLSSYAMGWVRQAPGKCLEYIGYISKIGTTYYASWAKGRFTISKDNSKNTVYLQMNSLRAEDTAVYFCARGSSSGGYLDDGFDPWGQGTLVTVSSGGGGSGGGGSEVQLVESGGGLVQPGGSLRLSCAASGFSLSSYDMSWVRQAPGKGLAWIGASYASGPTYYASWAKGRFTISRDNSKNTVYLQMCSLRAEDTATYFCARGGWTGTSHSNIWGQGTLVTVSSGGGSGGGSGGGSGEVQLVESGGGLVQPGGSLRLSCAASGFSLSSYAMNWVRQAPGKCLEWIGHINAGDIAYYATWAKGRFTISRDNSKNTVYLQMNSLRAEDTAVYFCARGAGGFSTGPFKLWGQGTLVTVSS
chain 2: ALQMTQSPSSLSARVGDRVTIKCQASQSISNYLAWYQQKPGKPPKFLIYDASDLASGVPSRFSGSGSGRDFTLTISSLQPEDFATYYCQQVYDSNNVENVFGCGTKVTVLGGGGGSGGGGSGGGGSGGGGSQSQLVESGGGLVQPGGSLRLSCAVSGFSLSSYAMGWVRQAPGKCLEYIGYISKIGTTYYASWAKGRFTISKDNSKNTVYLQMNSLRAEDTAVYFCARGSSSGGYLDDGFDPWGQGTLVTVSSGGGGSGGGGSAFELTQSPSSLSASVGDRVTITCQASESINSRLAWYQQKPGQPPKLLIYDASDLTSGVPSRFSGSGSGTDFTLTISCLQPEDFATYYCQGYGGSSTTTFGCGTKLTVLGGGSGGSGGSGGSGDIQMTQSPSSLSASVGDRVTITCQSSQSVFSNNYLAWFQQKPGQSPKRLIYSASTLASGVPSRFSGSGSGTDFTLTISSLQPEDFATYYCLGSYACSSADCYVFGTGTKVTVLG
notes: Heterodimer
B3: PRO2567 (MATCH4) (other)
chain 1: AFELTQSPSSLSASVGDRVTITCQASESINSRLAWYQQKPGQPPKLLIYDASDLTSGVPSRFSGSGSGTDFTLTISSLQPEDFATYYCQGYGGSSTTTFGTGTKLTVLGGGGGSGGGGSGGGGSGGGGSEVQLVESGGGLVQPGGSLRLSCAASGFSLSSYAMNWVRQAPGKGLEWIGHINAGDIAYYATWAKGRFTISRDNSKNTVYLQMNSLRAEDTAVYFCARGAGGFSTGPFKLWGQGTLVTVSSGGGGSGGGGSEVQLVESGGGLVQPGGSLRLSCAASGFSLSSYDMSWVRQAPGKGLAWIGASYASGPTYYASWAKGRFTISRDNSKNTVYLQMNSLRAEDTATYFCARGGWTGTSHSNIWGQGTLVTVSSGGGSGGGSGGGSGQSQLVESGGGLVQPGGSLRLSCAVSGFSLSSYAMGWVRQAPGKCLEYIGYISKIGTTYYASWAKGRFTISKDNSKNTVYLQMNSLRAEDTAVYFCARGSSSGGYLDDGFDPWGQGTLVTVSS
chain 2: ALQMTQSPSSLSARVGDRVTIKCQASQSISNYLAWYQQKPGKPPKFLIYDASDLASGVPSRFSGSGSGRDFTLTISSLQPEDFATYYCQQVYDSNNVENVFGCGTKVTVLGGGGGSGGGGSGGGGSGGGGSQSQLVESGGGLVQPGGSLRLSCAVSGFSLSSYAMGWVRQAPGKCLEYIGYISKIGTTYYASWAKGRFTISKDNSKNTVYLQMNSLRAEDTAVYFCARGSSSGGYLDDGFDPWGQGTLVTVSSGGGGSGGGGSALQMTQSPSSLSARVGDRVTIKCQASQSISNYLAWYQQKPGKPPKFLIYDASDLASGVPSRFSGSGSGRDFTLTISSLQPEDFATYYCQQVYDSNNVENVFGCGTKVTVLGGGSGGSDIQMTQSPSSLSASVGDRVTITCQSSQSVFSNNYLAWFQQKPGQSPKRLIYSASTLASGVPSRFSGSGSGTDFTLTISSLQPEDFATYYCLGSYACSSADCYVFGTGTKVTVLG
notes: Heterodimer
B4: PRO2566 (MATCH4) (other)
chain 1: B3 chain 1
chain 2: ALQMTQSPSSLSARVGDRVTIKCQASQSISNYLAWYQQKPGKPPKFLIYDASDLASGVPSRFSGSGSGRDFTLTISSLQPEDFATYYCQQVYDSNNVENVFGCGTKVTVLGGGGGSGGGGSGGGGSGGGGSQSQLVESGGGLVQPGGSLRLSCAVSGFSLSSYAMGWVRQAPGKCLEYIGYISKIGTTYYASWAKGRFTISKDNSKNTVYLQMNSLRAEDTAVYFCARGSSSGGYLDDGFDPWGQGTLVTVSSGGGGSGGGGSALQMTQSPSSLSARVGDRVTIKCQASQSISNYLAWYQQKPGKPPKFLIYDASDLASGVPSRFSGSGSGRDFTLTISSLQPEDFATYYCQQVYDSNNVENVFGCGTKVTVLGGGSGGSGGSGGSGDIQMTQSPSSLSASVGDRVTITCQSSQSVFSNNYLAWFQQKPGQSPKRLIYSASTLASGVPSRFSGSGSGTDFTLTISSLQPEDFATYYCLGSYACSSADCYVFGTGTKVTVLG
notes: Heterodimer

The binders below were run against T1, human recombinant CD3ε protein (Sino Biological) (human, UniProt P07766 23-126) (assay: SPR, CD3ε amine-coupled to CM5, antibody injected).
T1 construct: Bought protein; also called recombinant human CD3ε; human CD3ε
Work on B1 yielded a Kd of 5.71 nM.
B2 was tested, and the Kd was 6.45 nM.
For B3, the Kd was 4.78 nM.
B4 was tested, and the Kd was 2.97 nM.

The binders below were run against T2, plasma-membranous human MSLN on cell lines (H226, HPAC, H292, OVCAR-3, MeT-5A) (human, UniProt Q13421 296-598) (assay: flow cytometry on H226 cells, protein L-PE, 4PL fit).
T2 construct: whole, on cells; also called human MSLN on H226 cells; mesothelin on target cells
B1 was tested, and the EC50 was 1.08 nM and the “max. binding (MFI)” value was 686000 MFI.
B2 was tested, and the EC50 was 0.447 nM and the “max. binding (MFI)” value was 609000 MFI.
B3 was tested, and the EC50 was 0.611 nM and the “max. binding (MFI)” value was 809000 MFI.
In the case of B4, the EC50 is reported as 0.564 nM and the “max. binding (MFI)” value is reported as 757000 MFI.

What follows are binders tested against T2, plasma-membranous human MSLN on cell … (assay: flow cytometry on Met-5A cells, protein L-PE, 4PL fit).
With B1 the EC50 was 0.157 nM and the “max. binding (MFI)” value was 14500 MFI.
In the case of B2, the EC50 is reported as 0.0877 nM and the “max. binding (MFI)” value is reported as 12000 MFI.
For B3, the EC50 was 0.0824 nM and the “max. binding (MFI)” value was 11200 MFI.
In the case of B4, the EC50 is reported as 0.106 nM and the “max. binding (MFI)” value is reported as 12100 MFI.

Each binder was assayed against T2, plasma-membranous human MSLN on cell … (assay: flow cytometry on OVCAR-3 cells, protein L-PE, 4PL fit).
With B1 the EC50 was 10.7 nM and the “max. binding (MFI)” value was 198000 MFI.
B2 was tested, and the EC50 was 5.55 nM and the “max. binding (MFI)” value was 148000 MFI.
In the case of B3, the EC50 is reported as 6.64 nM and the “max. binding (MFI)” value is reported as 170000 MFI.
For B4, the EC50 was 5.13 nM and the “max. binding (MFI)” value was 154000 MFI.

These binders were tested against T2, plasma-membranous human MSLN on cell … (assay: cell-based or functional assay).
B1 was tested, and the “Fold-diff Window (mean Met-5A EC50 / mean H226 EC50)” value was 1.7 fold, the “average mean H226 EC50, cell killing (LDH release)” value (“average mean H226 EC50” for short) was 0.0285 nM and the “average mean Met-5A EC50, cell killing (LDH release)” value (shortened to “average mean Met-5A EC50”) was 0.0485 nM.
In the case of B3, the “Fold-diff Window (mean Met-5A EC50 / mean H226 EC50)” value is reported as 28.5 fold, the “average mean H226 EC50” value is reported as 0.00346 nM and the “average mean Met-5A EC50” value is reported as 0.0987 nM.
With B4 the “Fold-diff Window (mean Met-5A EC50 / mean H226 EC50)” value was 436 fold, the “average mean H226 EC50” value was 0.00609 nM and the “average mean Met-5A EC50” value was 2.66 nM.

These binders were tested against T3, recombinant human MSLN (purchased from Peprotech) (human, UniProt Q13421 296-598, limits assumed) (assay: SPR (Biacore T200), human MSLN; which of the two formats (MSLN immobilized / antibody captured) not given).
T3 construct: Bought protein; also called recombinant human mesothelin
B2 was tested, and the Kd was 1.39 nM, the koff was 0.000571 s⁻¹ and the kon was 410000 M⁻¹ s⁻¹.
For B3, the Kd was 1.41 nM, the koff was 0.000578 s⁻¹ and the kon was 411000 M⁻¹ s⁻¹.
B4 was tested, and the Kd was 1.52 nM, the koff was 0.000608 s⁻¹ and the kon was 400000 M⁻¹ s⁻¹.

These binders were tested against human serum albumin (hSA, Sigma-Aldrich A3782) (human, UniProt P02768 25-609) (assay: SPR, hSA amine-coupled to CM5, antibody injected, pH 5.5, 1:1 Langmuir).
B1 showed a Kd of 5.71 nM, a koff of 0.0016 s⁻¹ and a kon of 280000 M⁻¹ s⁻¹.
For B2, the Kd was 6.45 nM, the koff was 0.00149 s⁻¹ and the kon was 231000 M⁻¹ s⁻¹.
B3 gave a Kd of 8.8 nM, a koff of 0.00453 s⁻¹ and a kon of 515000 M⁻¹ s⁻¹.
B4 was tested, and the Kd was 6.89 nM, the koff was 0.00399 s⁻¹ and the kon was 579000 M⁻¹ s⁻¹.

What follows are binders tested against soluble mesothelin (sMSLN) (assay: cell-based or functional assay).
B1 was tested, and the “Delta 0-50 ng/mL sMSLN (x-fold change in H226 killing potency)” value was 12 fold and the “Delta 0-500 ng/mL sMSLN (x-fold change in H226 killing potency)” value was 85.1 fold.
With B3 the “Delta 0-50 ng/mL sMSLN (x-fold change in H226 killing potency)” value was 3.2 fold and the “Delta 0-500 ng/mL sMSLN (x-fold change in H226 killing potency)” value was 23.8 fold.
With B4 the “Delta 0-50 ng/mL sMSLN (x-fold change in H226 killing potency)” value was 3.1 fold and the “Delta 0-500 ng/mL sMSLN (x-fold change in H226 killing potency)” value was 14.2 fold.
